Experiments:
epithin = biological target: T1, epithin (mouse, UniProt P56677 615-855, limits assumed); test: steady state kinetics, inhibition of epithin
T1 construct: also called mouse homologue of MT-SP1; A11 (Epithin)
T1 sequence (looked up): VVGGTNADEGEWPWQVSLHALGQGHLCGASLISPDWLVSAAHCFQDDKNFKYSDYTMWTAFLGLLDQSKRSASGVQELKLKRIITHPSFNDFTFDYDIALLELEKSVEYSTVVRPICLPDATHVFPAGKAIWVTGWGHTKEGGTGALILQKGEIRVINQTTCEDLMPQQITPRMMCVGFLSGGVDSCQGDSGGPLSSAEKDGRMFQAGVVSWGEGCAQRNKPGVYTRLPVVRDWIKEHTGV

[1] = biological target: T2, human MT-SP1 protease domain (human, UniProt Q9Y5Y6 615-855); test: steady state kinetics
T2 construct: domain: protease domain; also called hMT-SP1; matriptase
T2 sequence (looked up): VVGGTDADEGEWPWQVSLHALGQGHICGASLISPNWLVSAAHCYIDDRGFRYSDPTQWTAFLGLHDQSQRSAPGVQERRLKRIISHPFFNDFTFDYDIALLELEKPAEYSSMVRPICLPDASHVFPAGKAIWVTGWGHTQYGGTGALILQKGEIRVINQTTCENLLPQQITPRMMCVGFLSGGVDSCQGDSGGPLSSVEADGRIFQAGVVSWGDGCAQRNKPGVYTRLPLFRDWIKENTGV
Description: (§1) Briefly, all reactions were carried out in 50 mM Tris, pH 8.8, 50 mM NaCl, 0.01% Tween-20 in 96-well, medium binding, flat-bottomed plate (Corning), and cleavage of substrate (Spectrazyme-tPA (hexahydrotyrosyl-Gly-Arg-pNA), American Diagnostica, Greenwich, Conn.) was monitored in a UVmax Microplate Reader (Molecular Devices Corporation, Palo Alto, Calif.). […] Reactions to determine the IC₅₀'s were carried out by incubating 0.2 nM enzyme with inhibitor for >5 hours to assure steady-state behavior of the system. […] Inhibitor activity was also measured using the chromogenic substrate Spectrafluor tPA (American diagnostica, Inc.). […] Kaleidagraph 3.6 was used to fit all graphs and equations (Synergy Software, Reading, Pa.).

[2] = biological target: T2, human MT-SP1 protease domain; test: steady state kinetics, tight-binding inhibition of Spectrazyme-tPA cleavage
Description: as §1

[3] = biological target: T2, human MT-SP1 protease domain; test: steady state kinetics, probably pM (the same paragraph prints 720 µM for what Table 3 gives as 0.72 nM)
Description: as §1

Binder | Ki (epithin) [nM] | fold change of KI over wild-type A11 [1] [fold] | Ki [2] [nM] | Ki [3] [nM]
A11 Fab (Fab, V domains shown, Human Fab from a naive phage library, VH3 heavy chain and Vkappa3 light chain; The Fab was made in E. coli for biochemical assays and in T. reesei for crystallisation; also called Fab A11; recombinant A11 Fab) VH: EVQLVQSGGGLVKPGGSLRLSCAASGFTFSSYAMSWVRQAPGKGLEWVSAISGSGGSTYYADSVKGRFTISRDNSKNTLYLQMSSLRAEDTAVYYCVKDLGIAARRFVSGAFDIWGQGTMVTVSS VL: EIVLTQSPGTLSLSPGERATLSCRASQSVSSSYLAWYQQKPGQAPRLLIYGASTRATGIPARFSGSGSGTDFTLTINSLEPEDFAVYYCQQRSNWPPGYTFGQGTKVEIKR | 87 | – | – | –
A11 H R100aA (Fab, V domains shown, also called ArgH100aAla; A11 mutant ArgH100aAla) VH: EVQLVQSGGGLVKPGGSLRLSCAASGFTFSSYAMSWVRQAPGKGLEWVSAISGSGGSTYYADSVKGRFTISRDNSKNTLYLQMSSLRAEDTAVYYCVKDLGIAAARFVSGAFDIWGQGTMVTVSS VL: EIVLTQSPGTLSLSPGERATLSCRASQSVSSSYLAWYQQKPGQAPRLLIYGASTRATGIPARFSGSGSGTDFTLTINSLEPEDFAVYYCQQRSNWPPGYTFGQGTKVEIKR | – | ~2 | 1.5 | –
A11 H R100bA (Fab, V domains shown, also called ArgH100bAla; A11 mutant ArgH100bAla) VH: EVQLVQSGGGLVKPGGSLRLSCAASGFTFSSYAMSWVRQAPGKGLEWVSAISGSGGSTYYADSVKGRFTISRDNSKNTLYLQMSSLRAEDTAVYYCVKDLGIAARAFVSGAFDIWGQGTMVTVSS VL: EIVLTQSPGTLSLSPGERATLSCRASQSVSSSYLAWYQQKPGQAPRLLIYGASTRATGIPARFSGSGSGTDFTLTINSLEPEDFAVYYCQQRSNWPPGYTFGQGTKVEIKR | – | 250 | 180 | –
A11 H R100bK (Fab, V domains shown, also called ArgH100bLys; A11 mutant ArgH100bLys) VH: EVQLVQSGGGLVKPGGSLRLSCAASGFTFSSYAMSWVRQAPGKGLEWVSAISGSGGSTYYADSVKGRFTISRDNSKNTLYLQMSSLRAEDTAVYYCVKDLGIAARKFVSGAFDIWGQGTMVTVSS VL: EIVLTQSPGTLSLSPGERATLSCRASQSVSSSYLAWYQQKPGQAPRLLIYGASTRATGIPARFSGSGSGTDFTLTINSLEPEDFAVYYCQQRSNWPPGYTFGQGTKVEIKR | – | 250 | 180 | –
E2 Fab (Fab, V domains shown, also called anti-MT-SP1 Fab antibody E2) VH: QVQLVQSGGGLVKPGGSLRLSCAASGFTFSSYAMSWVRQAPGKGLEWVSAISGSGGSTYYADSVKGRFTISRDNSKNTLYLQMSSLRAEDTAVYYCARPYLTYPQRRGPQNVSPFDNWGQGTMVTVSS VL: DIQMTQSPSSLSASVGDRVTITCRASQGISSYLAWYQQKPGKAPKLLIYAASSLQSGVPSRFSGSGSGTDFTLTISSLQPEDFAVYYCQQHGNLPYTFGDGTKVEIKR | – | – | – | 12000

Source: US20120141373A1 (University of California, published 2012)
